In patent EP4671269A1 (Akeso Biopharma Co., Ltd., dated 2025):
One block for each binder: values may come before it.

Assays:
TGF-β1 [1] = biological target: T1, TGF-β1 (human, UniProt P01137 279-390); assay: indirect ELISA, TGF-β1 coated
T1 construct: also called human TGF-β1; TGF-β1 protein

TGF-β1 [2] = biological target: T1, TGF-β1; assay: indirect ELISA, TGF-β1 coated; remark: listed apart in the source
TGF-β1 [3] = biological target: T1, TGF-β1; assay: competitive ELISA vs TGF-βRII-His-Biotin, TGF-β1 coated
[4] = biological target: T2, TIGIT on the cell membrane (293T-TIGIT, Jurkat-TIGIT-NFAT-Luc cells) (human, UniProt Q495A1 22-244); assay: FACS, 293T-TIGIT cells
T2 construct: whole, on cells; also called cell membrane surface antigen TIGIT
T2 sequence (looked up): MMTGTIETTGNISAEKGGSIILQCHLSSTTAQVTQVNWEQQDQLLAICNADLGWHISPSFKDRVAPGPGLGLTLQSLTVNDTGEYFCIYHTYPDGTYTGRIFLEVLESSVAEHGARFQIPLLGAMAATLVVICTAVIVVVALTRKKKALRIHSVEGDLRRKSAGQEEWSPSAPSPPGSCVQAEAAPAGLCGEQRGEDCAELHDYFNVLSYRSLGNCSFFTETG

human TIGIT-mFc [5] = biological target: T3, human TIGIT-mFc (human; mouse, UniProt Q495A1 22-141, limits assumed); assay: indirect ELISA, TIGIT-mFc captured on plate
T3 construct: not shown: Fc protein fragment of mouse IgG
T3 sequence (looked up): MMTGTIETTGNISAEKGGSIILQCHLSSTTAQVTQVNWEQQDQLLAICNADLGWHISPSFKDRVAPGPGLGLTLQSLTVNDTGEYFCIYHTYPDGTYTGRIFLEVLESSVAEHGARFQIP

human TIGIT-mFc [6] = biological target: T3, human TIGIT-mFc; assay: competitive ELISA vs CD155-hFc-Biotin, TIGIT-mFc coated
[7] = biological target: T2, TIGIT on the cell membrane (293T-TIGIT, …); assay: competitive FACS vs CD112-mFc, 293T-TIGIT cells
[8] = biological target: T2, TIGIT on the cell membrane (293T-TIGIT, …); assay: competitive FACS vs CD155-mFc, 293T-TIGIT cells
human TIGIT-hFc = biological target: T4, human TIGIT-hFc (human, UniProt Q495A1 22-141, limits assumed); assay: indirect ELISA, hybridoma screening
T4 construct: Screening antigen of the hybridoma ELISA; not shown: Fc protein fragment of human IgG
T4 sequence (looked up): T3 sequence (looked up)

EC50 (TGF-β1 [1]): 0.356 nM | EC50 (TGF-β1 [2]): 0.271 nM | EC50 (TGF-β1 [3]): 6.47 nM
B1: TGF-βRII-mFc (Fc fusion, UniProt P37173 24-159, looked up)
chain: IPPHVQKSVNNDMIVTDNNGAVKFPQLCKFCDVRFSTCDNQKSCMSNCSITSICEKPQEVCVAVWRKNDENITLETVCHDPKLPYHDFILEDAASPKCIMKEKKKPGETFFMCSCSSDECNDNIIFSEEYNTSNPD
notes: also called TGF-βR2-mFc; not shown: Fc protein fragment of mouse IgG

EC50 [4]: 1.61 nM | EC50 (human TIGIT-mFc [5]): 0.055 nM | EC50 (human TIGIT-mFc [6]): 1.68 nM
B2: RG6058(hG4) (antibody, V domains shown)
VH: EVQLQQSGPGLVKPSQTLSLTCAISGDSVSSNSAAWNWIRQSPSRGLEWLGKTYYRFKWYSDYAVSVKGRITINPDTSKNQFSLQLNSVTPEDTAVFYCTRESTTYDLLAGPFDYWGQGTLVTVSS
VL: not shown
notes: Positive control anti-TIGIT antibody from CN108290946A; also called RG6058(hG4WT)

EC50 [7]: 0.837 nM | EC50 [8]: 1.28 nM
B3: Tiragolumab (antibody, human IgG1, kappa, V domains shown)
VH: B2 VH
VL: not shown
notes: Positive control anti-TIGIT antibody; also called RG6058(hG1WT)

binding result (human TIGIT-hFc): binds
B4: 26B12 (antibody, V domains shown)
VH: EVQLQESGPGLVKPSQSLSLTCTVTGHSFTSDYAWNWIRQFPGNRLEWMGYISYSDSTNYNPSLKSRISITRDTSKNQFFLQMNSVTTEDTATYYCARLDYGNYGGAMDYWGQGTSVTVSS
VL: DIVLTQSHEFMSTSLRDRVSITCKSSQHVSTAVAWYQQKPGQSPKLLIYSASYRYTGVPDRFTGSGSGTDFTFTISSVKAEDLAVYYCQQHYITPWTFGGGTKLEIK
notes: Murine hybridoma antibody; also called anti-TIGIT antibody 26B12; monoclonal antibody secreted by hybridoma cell line LT019

EC50 (human TIGIT-mFc [6]): 1.42 nM
B5: 26B12H2L2(hG4DM) (antibody, human IgG4 S228P, kappa, F234A L235A)
heavy: not shown
light: DIQMTQSPSSLSASVGDRVTITCRSSQHVSTALAWYQQKPGKSPKLLIYSASSRYSGVPDRFSGSGSGTDFTFTISSLQPEDFATYYCQQHYITPWTFGGGTKLEIKRTVAAPSVFIFPPSDEQLKSGTASVVCLLNNFYPREAKVQWKVDNALQSGNSQESVTEQDSKDSTYSLSSTLTLSKADYEKHKVYACEVTHQGLSSPVTKSFNRGEC
notes: Humanized anti-TIGIT antibody, IgG4 with F234A and L235A (EU numbering)
